Results: US10407503B2, “Fully human antibodies and fragments recognizing human c-Met” (THE REGENTS OF THE UNIVERSITY OF CALIFORNIA, priority 2012, dated 2019)
Entries after “also recorded” stand apart in the source; their conditions may differ.

B1: F1 ScFv antibody (phage-displayed) (scFv)
scFv: QVQLVQSGAEVKKPGASVKVSCKASGYTFTDYYMHWVRQAPGEGLEWMGWMNPNSGGTNYAQKFQGRVTMTRDTSISTAYMELSRLRSDDTAVYYCARSHYWDSWSPGTLVTVSSGGGGGSGGGGSGGGGSSALTQPASVSGSPGQSITISCTGTSGDVGGYNYVSWYQQHPGKAPKLMIYDVSNRPSGVSNRFSGSKSGNTASLTISGLQAEDEADYYCTSYAGSRNLVFGGGTKLTVLG
notes: The fusion to the phage coat protein is not described
B2: C2 cys-diabody (other)
chain: QVQLQESGGGLVQPGGSLRLSCAASGFTFSSYAMSWVRQAPGKGLEWVSAISGSGGSTYYADSVKGRFTISRDNSKNTLYLQMNSLRAEDTAVYYCASQHVGEQSRYFDYWGQGTLVTVSSGGGGGSDIVMTQSPSSLSASIGDRVTITCRASHSISSYVNWYQKKPGKAPNLLIYAASYLPRGVPSRFSGSGLGTDFTLTISNLQPEDFATYYCQESYSTPYSFGQGTKVDIKRAAAEQKLISEEDLNGAAHHHHHHC
notes: Expressed in E. coli and purified through the His tag; also called C2 diabody
B3: C2 cys-diabody: human anti-c-Met cys-diabody comprising SEQ ID NO:18 (protein)
chain: B2 chain
modifications: C2 cys-diabody sequence
B4: H5 cys-diabody (other)
chain: QVQLQESGGGLVQPGGSLRLSCAASGFTFSNYAMSWVRQAPGKGLEWVSAISGSGGSTYYADSVKGRFTISRDNSKNTLYLQMNSLRAEDTAVYYCAKDRFRAAAYWGQGTLVTVSSGGGGGSQSVLTQPPSVSAAPGQKVTISCTGSSSNIGAGYDVHWYQQLPGTAPKLLIYGNSNRPSGVPDRFSGSKSGTSASLAISGLQSEDEADYYCAAWDDILNGEIFGGGTKVTVLGAAAEQKLISEEDLNGAAHHHHHHC
notes: Expressed in E. coli and purified through the His tag; also called H5 diabody
B5: H5 cys-diabody: human anti-c-Met cys-diabody comprising SEQ ID NO:24 (protein)
chain: B4 chain
modifications: H5 cys-diabody sequence

What was measured:
[1] = molecular target: T1, c-MET on the surface of Hcc827 or Hcc827-GR6 cells (human, UniProt P08581 25-1390); assay: phage flow cytometry on Hcc827 cells, bound phage detected with FITC anti-M13 antibody
T1 construct: whole, on cells; The cells express the receptor endogenously, and MET is amplified in Hcc827-GR6; also called cell surface MET
Method: For phage antibodies, flow cytometry was used to confirm their binding to c-MET expressing cells. Bacteria culture containing phage was concentrated 30 times into PBS according to published method (Antibody Engineering Methods and Protocols, Benny K. C. Lo). $2 \sim 5 \times 10^5$ c-MET positive Hcc827 or Hcc827-GR6 cells (Engelman et. al, Science, 2007) were incubated with 100 ul concentrated phage and 30 ul 4% milk-PBS on ice for 1 hour. Cells were then washed using flow buffer (PBS, 1% FBS, 2 mM EDTA), and the binding phage antibodies were detected by FITC conjugated anti-M13 monoclonal antibody (Santa Cruz Biotechnology, Cat# sc-53005 Fitc).

[2] = molecular target: T1, c-MET on the surface of Hcc827 or …; assay: flow cytometry on Hcc827-GR6 cells, one-site total binding fit
Method: (§1) The affinities of the cys-diabodies were evaluated by flow cytometry. Serial diluted cys-diabodies were incubated with Hcc827-GR6 cells at 4 degrees for 2 hours. The cys-diabodies were detected with 1/100 mouse anti-c-Myc antibody (Sigma, Cat# M4439) and stained with 1/100 PE or FITC conjugated goat anti mouse IgG polyclonal antibody (Jackson ImmunoResearch) in flow buffer.
(§2) The affinity of these 3 cys-diabodies were evaluated by flow cytometry. The concentrations of the purified proteins were determined by their A280, measured with Nanodrop 2000 (Thermal Scientific), and their calculated extinction coefficient (ProtParam tool, expasy.org). The binding curve was fitted with one-site total binding model by GraphPad Prism.

[3] = molecular target: T1, c-MET on the surface of Hcc827 or …; assay: flow cytometry binding curve on cells (the sheet does not name them; paragraph 217: Hcc827 GR6 cell line)
Method: as §1, §2

[4] = molecular target: T2, mouse MET-hIgG Fc fusion protein (Sino Biological Inc.) (mouse; human, UniProt P16056 25-931, limits assumed); assay: capture ELISA: cys-diabody coated on the plate, mouse MET-hIgG Fc applied, detected with alkaline phosphatase anti-human IgG
T2 construct: Bought protein; also called mouse MET protein; MET-hFc
Method: 1 µg of purified anti-MET cys-diabodies in 100 µL PBS were used to coat each well at 4 degree overnight. Anti-EpCAM cys-diabody or 2% milk-PBS were used for negative controls. The overnight coated plate was then washed with PBS and blocked with 2% milk-PBS at 37 degree for 2 hours. The plate was then washed with PBS before adding 0.1 µg human or mouse MET-hIgG Fc fusion protein (purchased from Sino Biological Inc.) in 100 µL, 2% milk-PBS to each well. The plate was incubated at room temperature for 1.5 hours, and then washed with PBS-Tween and PBS. The captured human or mouse MET-hIgG Fc were detected with alkaline phosphatase conjugated goat anti-human IgG.
C2, H2 and H5 cys-diabodies were used to coat 96-well ELISA plate to capture human or mouse MET-hIgG Fc fusion protein. The human IgG Fc on the fusion protein was detected with alkaline phosphatase conjugated goat anti-human IgG. The results in FIG. 4 show H2 cys-diabody can bind to both human and mouse MET protein, while C2 and H5 cys-diabodies show minimal cross reactivity to the mouse MET. Anti-EpCAM H9 cys-diabody or 2% milk-PBS were used as negative controls.

[5] = molecular target: T3, human MET protein (Homo sapiens, UniProt P08581); assay: Anti-MET ELISA, human MET-hIgG Fc captured by coated cys-diabodies; format: binding; conditions: coated cys-diabody captures human MET-hFc
T3 construct: purchased Sino Biological Inc
Method: (§3) Three rounds of selections on human MET protein were performed which were successfully reformatted and purified 3 cys-diabodies. C2, H2 and H5 cys-diabodies were tested for cross-reactivity to mouse MET protein. Different cys-diabodies were coated to 96-well plate (milk or anti-EpCAM cys-diabody was used as negative control). Either mouse or human MET protein was applied to the coated cys-diabodies. Then the MET-hFc proteins were detected by anti-human Fc antibody.
(§4) 1 μg of purified anti-MET cys-diabodies in […], PBS were used to coat each well at 4 degree overnight. Anti-EpCAM cys-diabody or 2% milk-PBS were used for negative controls. The overnight coated plate was then washed with PBS and blocked with 2% milk-PBS at 37 degree for 2 hours. […] The captured human or mouse MET-hIgG Fc were detected with alkaline phosphatase conjugated goat anti-human IgG.
(§5) C2, H2 and H5 cys-diabodies were used to coat 96-well ELISA plate to capture human or mouse MET-hIgG Fc fusion protein. The human IgG Fc on the fusion protein was detected with alkaline phosphatase conjugated goat anti-human IgG. […]
(§6) Three rounds of selections on human MET protein were performed, and three cys-diabodies were reformatted and purified (the C2, H2 and H5 cys-diabodies). […] Then the MET-hFc proteins were detected by anti-human Fc antibody.

[6] = molecular target: T4, mouse MET protein (Mus musculus, UniProt P16056); assay: Anti-MET ELISA, mouse MET-hIgG Fc captured by coated cys-diabodies (cross reactivity); format: binding; conditions: coated cys-diabody captures mouse MET-hFc
T4 construct: purchased Sino Biological Inc
Method: as §3, §4, §5, §6

[7] = tested on: Hcc827 cells; assay: MTS cell growth assay, parental Hcc827 cells; format: cell-based; conditions: 3 days, with 1 micromolar gefitinib
Method: (§7) These diabodies also show therapeutic effects on resistant cells with MET amplification. […] The diabodies were also applied to the resistant cell line GR6 with or without 1 μM gefitinib.
(§8) Cell growth and inhibition were evaluated by MTS assay. The MTS assay was based on the ability of live cells to convert 3-(4,5-dimethylthiazol-2-yl)-5-(3-carboxymethoxyphenyl)-2-(4-sulfophenyl)-2H-tetrazolium (MTS) to formazan. The quantity of formazan product was measured by 500 nm absorbance, which is proportional to the number of living cells in culture. The assay was performed with the CellTiter96 AQueous Assay Kit from Promega (Cat# G5421), according to the recommended protocol. 2×10^4 cells were seeded in each well of the 96-well plates and treated with different combination of antibodies and drugs for 3 days before the MTS assay. Each combination of cell line and drug and antibody treatment was set up in at least 4 replicate wells. And the results were normalized to the cells treated with media only.
(§9) Different cell lines were treated with C2, H2 or H5 cys-diabodies at different concentrations with or without 1 micromolar of gefitinib for 3 days, and then the cell growth was evaluated with MTS assay. […] All three cys-diabodies show no effects on the parental Hcc827 cells without gefitinib.
These diabodies also show therapeutic effects on resistant cells with MET amplification. […]

[8] = tested on: Hcc827-GR6 cells; assay: MTS cell growth assay, gefitinib resistant Hcc827-GR6 cells; format: cell-based; conditions: 3 days, with or without 1 μM gefitinib, MET amplified
Method: as §7, §8, §9
These diabodies also show therapeutic effects on resistant cells with MET amplification. The parental cell line, Hcc827, was treated with the diabodies for 3 days, and the diabodies show no effects on the growth of the parental line at all.

T1 sequence (P08581 25-1390): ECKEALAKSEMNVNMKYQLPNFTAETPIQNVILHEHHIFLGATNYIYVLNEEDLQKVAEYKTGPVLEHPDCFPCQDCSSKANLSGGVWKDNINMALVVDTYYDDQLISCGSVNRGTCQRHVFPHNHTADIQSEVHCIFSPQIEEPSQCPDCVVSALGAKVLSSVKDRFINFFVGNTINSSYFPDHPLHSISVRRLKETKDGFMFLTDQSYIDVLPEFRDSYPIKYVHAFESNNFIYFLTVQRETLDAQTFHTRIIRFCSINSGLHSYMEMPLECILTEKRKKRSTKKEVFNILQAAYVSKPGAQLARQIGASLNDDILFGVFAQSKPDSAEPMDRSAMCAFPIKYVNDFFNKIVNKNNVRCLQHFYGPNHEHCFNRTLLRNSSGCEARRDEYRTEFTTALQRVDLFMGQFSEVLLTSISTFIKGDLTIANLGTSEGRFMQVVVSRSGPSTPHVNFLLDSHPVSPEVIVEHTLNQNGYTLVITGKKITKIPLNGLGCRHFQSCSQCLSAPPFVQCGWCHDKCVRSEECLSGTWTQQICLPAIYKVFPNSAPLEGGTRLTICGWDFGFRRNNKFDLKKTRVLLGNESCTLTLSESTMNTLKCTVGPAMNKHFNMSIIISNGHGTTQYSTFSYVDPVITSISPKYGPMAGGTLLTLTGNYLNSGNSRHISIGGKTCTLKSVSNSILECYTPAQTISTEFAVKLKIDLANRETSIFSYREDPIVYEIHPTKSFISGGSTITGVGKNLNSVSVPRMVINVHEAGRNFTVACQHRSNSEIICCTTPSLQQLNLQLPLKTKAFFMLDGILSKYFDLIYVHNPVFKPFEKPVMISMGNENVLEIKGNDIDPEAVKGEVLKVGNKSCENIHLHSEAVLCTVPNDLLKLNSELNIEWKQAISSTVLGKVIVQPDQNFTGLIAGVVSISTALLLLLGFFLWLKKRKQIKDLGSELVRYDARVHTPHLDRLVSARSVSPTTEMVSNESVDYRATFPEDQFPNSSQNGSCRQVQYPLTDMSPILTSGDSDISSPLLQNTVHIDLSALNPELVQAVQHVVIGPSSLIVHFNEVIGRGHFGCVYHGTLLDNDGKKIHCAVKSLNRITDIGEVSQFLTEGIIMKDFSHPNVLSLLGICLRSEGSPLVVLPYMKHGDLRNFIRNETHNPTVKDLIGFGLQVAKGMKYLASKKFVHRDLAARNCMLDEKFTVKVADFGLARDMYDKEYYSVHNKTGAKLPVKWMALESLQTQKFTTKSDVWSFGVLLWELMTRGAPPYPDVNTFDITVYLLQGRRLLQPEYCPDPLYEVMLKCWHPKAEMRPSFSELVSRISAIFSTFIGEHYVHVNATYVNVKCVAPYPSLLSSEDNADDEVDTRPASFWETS
T4 sequence (P16056 with tags, fused parts or gaps limits assumed): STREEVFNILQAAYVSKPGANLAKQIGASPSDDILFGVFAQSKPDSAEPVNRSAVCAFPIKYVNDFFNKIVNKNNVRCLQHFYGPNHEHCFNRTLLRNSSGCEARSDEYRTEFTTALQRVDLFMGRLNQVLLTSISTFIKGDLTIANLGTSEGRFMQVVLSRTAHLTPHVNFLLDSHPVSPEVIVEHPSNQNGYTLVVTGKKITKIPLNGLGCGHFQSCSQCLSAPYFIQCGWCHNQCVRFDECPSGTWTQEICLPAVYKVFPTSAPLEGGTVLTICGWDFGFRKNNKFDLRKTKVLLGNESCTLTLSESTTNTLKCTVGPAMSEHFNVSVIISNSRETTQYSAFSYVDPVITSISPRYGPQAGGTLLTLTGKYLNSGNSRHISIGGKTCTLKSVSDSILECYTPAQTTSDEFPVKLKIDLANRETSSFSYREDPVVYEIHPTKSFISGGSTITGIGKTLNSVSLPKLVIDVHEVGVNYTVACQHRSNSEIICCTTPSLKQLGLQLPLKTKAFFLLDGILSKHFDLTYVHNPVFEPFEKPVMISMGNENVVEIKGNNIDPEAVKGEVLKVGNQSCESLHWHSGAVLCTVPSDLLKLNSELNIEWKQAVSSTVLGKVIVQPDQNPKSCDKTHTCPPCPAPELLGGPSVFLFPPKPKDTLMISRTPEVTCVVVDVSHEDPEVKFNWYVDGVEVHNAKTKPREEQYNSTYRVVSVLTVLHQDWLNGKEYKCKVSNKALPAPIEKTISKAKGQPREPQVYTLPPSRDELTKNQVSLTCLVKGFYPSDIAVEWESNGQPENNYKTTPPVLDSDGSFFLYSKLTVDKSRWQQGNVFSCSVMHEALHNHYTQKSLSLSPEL
T4 sequence (P16056 25-306 limits assumed): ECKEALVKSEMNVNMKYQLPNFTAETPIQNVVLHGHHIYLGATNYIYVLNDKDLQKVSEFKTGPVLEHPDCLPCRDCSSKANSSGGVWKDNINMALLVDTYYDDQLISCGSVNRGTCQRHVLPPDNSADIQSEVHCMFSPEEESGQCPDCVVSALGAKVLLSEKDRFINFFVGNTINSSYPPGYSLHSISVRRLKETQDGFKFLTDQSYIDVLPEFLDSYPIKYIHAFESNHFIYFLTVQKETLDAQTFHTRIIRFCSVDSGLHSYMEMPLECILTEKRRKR
T2 sequence (P16056 25-931 limits assumed): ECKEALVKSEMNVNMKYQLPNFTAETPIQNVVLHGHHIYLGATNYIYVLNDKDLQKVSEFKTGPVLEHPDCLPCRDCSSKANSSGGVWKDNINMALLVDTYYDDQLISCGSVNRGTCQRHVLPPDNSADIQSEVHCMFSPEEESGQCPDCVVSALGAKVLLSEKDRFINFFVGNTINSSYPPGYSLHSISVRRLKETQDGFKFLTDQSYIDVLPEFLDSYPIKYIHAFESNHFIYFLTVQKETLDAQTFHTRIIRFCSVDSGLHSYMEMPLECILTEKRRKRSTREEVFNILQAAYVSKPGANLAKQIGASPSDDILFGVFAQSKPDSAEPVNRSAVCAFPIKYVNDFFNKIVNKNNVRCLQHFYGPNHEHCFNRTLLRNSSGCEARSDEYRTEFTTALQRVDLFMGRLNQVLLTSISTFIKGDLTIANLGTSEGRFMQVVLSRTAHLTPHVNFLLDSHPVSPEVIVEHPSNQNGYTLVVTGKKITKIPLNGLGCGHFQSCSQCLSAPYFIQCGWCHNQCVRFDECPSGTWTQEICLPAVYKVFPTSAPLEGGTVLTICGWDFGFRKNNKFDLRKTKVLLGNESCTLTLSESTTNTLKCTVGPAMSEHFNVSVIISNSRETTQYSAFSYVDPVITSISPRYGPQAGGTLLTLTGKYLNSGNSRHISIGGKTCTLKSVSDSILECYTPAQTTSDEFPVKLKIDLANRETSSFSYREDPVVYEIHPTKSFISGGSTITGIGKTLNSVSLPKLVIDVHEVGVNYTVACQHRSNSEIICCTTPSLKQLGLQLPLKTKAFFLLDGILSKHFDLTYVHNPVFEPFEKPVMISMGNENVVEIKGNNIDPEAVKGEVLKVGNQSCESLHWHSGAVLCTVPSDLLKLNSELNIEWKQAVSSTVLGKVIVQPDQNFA
T3 sequence (P08581 with tags, fused parts or gaps limits assumed): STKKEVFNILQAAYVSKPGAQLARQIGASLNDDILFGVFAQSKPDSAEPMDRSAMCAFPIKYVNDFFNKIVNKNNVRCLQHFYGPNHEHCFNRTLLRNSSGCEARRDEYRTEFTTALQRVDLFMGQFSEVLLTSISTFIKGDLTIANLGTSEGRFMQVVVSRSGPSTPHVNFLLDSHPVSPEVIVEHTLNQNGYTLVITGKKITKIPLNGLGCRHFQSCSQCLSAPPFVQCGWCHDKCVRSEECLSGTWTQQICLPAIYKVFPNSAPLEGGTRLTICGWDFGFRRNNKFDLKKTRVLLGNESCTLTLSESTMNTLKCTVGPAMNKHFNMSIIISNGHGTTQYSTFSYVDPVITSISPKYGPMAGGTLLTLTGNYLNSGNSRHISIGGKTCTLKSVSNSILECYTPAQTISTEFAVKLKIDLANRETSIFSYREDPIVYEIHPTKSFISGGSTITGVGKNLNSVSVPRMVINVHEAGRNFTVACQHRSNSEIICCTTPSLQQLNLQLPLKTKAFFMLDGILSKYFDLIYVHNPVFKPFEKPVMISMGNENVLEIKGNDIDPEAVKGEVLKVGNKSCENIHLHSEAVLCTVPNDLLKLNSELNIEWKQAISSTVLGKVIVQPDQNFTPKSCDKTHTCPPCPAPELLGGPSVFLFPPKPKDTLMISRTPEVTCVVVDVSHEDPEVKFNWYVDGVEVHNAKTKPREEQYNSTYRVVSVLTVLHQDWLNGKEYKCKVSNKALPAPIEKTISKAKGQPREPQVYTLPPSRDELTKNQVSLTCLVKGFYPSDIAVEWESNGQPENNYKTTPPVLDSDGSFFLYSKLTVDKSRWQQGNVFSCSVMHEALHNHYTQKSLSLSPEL
T3 sequence (P08581 25-307 limits assumed): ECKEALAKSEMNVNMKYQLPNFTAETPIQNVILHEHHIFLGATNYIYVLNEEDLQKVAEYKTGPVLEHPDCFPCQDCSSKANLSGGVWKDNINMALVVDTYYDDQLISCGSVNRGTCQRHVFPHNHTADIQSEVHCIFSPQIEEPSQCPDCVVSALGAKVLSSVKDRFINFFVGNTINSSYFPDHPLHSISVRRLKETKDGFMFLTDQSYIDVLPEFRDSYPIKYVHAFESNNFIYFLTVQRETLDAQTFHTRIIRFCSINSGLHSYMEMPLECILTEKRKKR

| Molecule | Kd [2] | Kd [3] | binding result [4] | binding to human MET protein [5] | cross reactivity to mouse MET protein [6] | also measured |
| --- | --- | --- | --- | --- | --- | --- |
| B1 |  |  |  |  |  | binding result [1]: binds |
| B2 | 2.4 nM | 2 nM | no binding |  |  |  |
| B3 |  |  |  | bind to only human MET | bind to only human MET; also recorded: minimal cross reactivity to the mouse MET | effect on growth of sensitive Hcc827 cells with gefitinib [7]: protects the sensitive Hcc827 cells from gefitinib inhibition; inhibition of growth of resistant Hcc827-GR6 cells ([8]; listed as C2 diabody): some inhibition at high concentrations; also recorded: inhibition only at high concentrations |
| B4 | 4.6 nM | 4.7 nM | no binding |  |  |  |
| B5 |  |  |  | bind to only human MET | bind to only human MET; also recorded: minimal cross reactivity to the mouse MET | inhibition of growth of resistant Hcc827-GR6 cells [8]: inhibition of the resistant cells at higher concentration; inhibition of growth of resistant Hcc827-GR6 cells ([8]; listed as H5 diabody): some inhibition at high concentrations; also recorded: inhibition only at high concentrations |
